# Molecular target: H1 stem (recombinant HA stem construct #4900 designed based on H1N1 A/Brisbane/59/2007 HA) (influenza A virus H1N1 A/Brisbane/59/2007)
# Assay: BLI
substance,measurement,value
somatic CR9114 Fab,Kd,< 0.1 nM

# From publication PMC13638050
